# Data from patent US20030219846A1, “Assay for activity of the ActRIIB kinase” (Pfizer Inc., priority 2002, published 2003).
# T1: target peptide
# T1 chain: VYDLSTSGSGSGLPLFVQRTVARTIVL
# Legend:
# his-catActRIIB kinase [1] = biological target: T2, his-catActRIIB kinase (Homo sapiens, UniProt Q13705); experiment: Autoradiographic kinase assay method (substrate phosphorylation); assay type: biochemical; settings: 1 mg/ml target peptide or 2.5 μM MBP, 10 μM ATP, [32P]-ATP, 30 minutes, ambient temperature
# T2 construct: His tag
# Procedure: A 20 μl reaction mixture comprising 2.5 μg/ml his-catActRIIB kinase, 1 mg/ml target peptide or 2.5 μM myelin basic protein (MBP), 10 μM ATP, 10 μCi [^32P]y-ATP (6000 Ci/mmol), 1 mg/ml bovine serum albumin (BSA), and 5 mM sodium orthovanadate in 25 mM HEPES (pH 7.3) was run for 30 minutes at ambient temperature. The reaction was stopped by adding ⅓ volume of 3× Laemmli buffer with β-mercaptoethanol and trace bromphenol blue (188 mM Tris pH 6.8, 3% SDS, 24% glycerol, 25% v/v, β-mercaptoethanol). The stopped reaction was loaded directly onto a 18% polyacrylamide/tris/glycine gel without boiling. The gel was run at about 100 volts to permit proper separation, washed for five minutes in water, and equilibrated for five minutes in semi-dry blotting buffer (48 mM Tris base, 39 mM glycine, 20% methanol, 0.375% SDS). Reaction products were then blotted onto a nitrocellulose filter for 48 minutes at 20 volts in a Bio-Rad semi-dry blotting apparatus and visualized and/or quantitated by autoradiography.
# his-catActRIIB kinase [2] = biological target: T2, his-catActRIIB kinase; experiment: Scintillation method kinase assay (TCA precipitation, filter plate); assay type: biochemical; settings: target peptide 176 μM or MBP 2 μM, 10 μM ATP, [33P]-ATP, 80 min, room temperature
# Procedure: A series of reaction mixtures comprising 25 mM HEPES (pH 7.3), 3 mM MgCl2, 1 mM MnCl2, 0.1 mM EDTA, 1 mM DTT, 0.2 mM sodium orthovanadate, 100 μg/ml BSA, 10 μM ATP, 0.25 μCi [^33P]y-ATP, and 16.5 μg/ml his-catActRIIB kinase was run in a total of 100 μl directly in a Durapore (Millipore) filter plate for 80 min at room temperature. The reaction was stopped by addition of an equal volume of ice cold TCA (10% or 25% v/v). After one hour at 4° C., the precipitate was collected under vacuum. The precipitate was washed five times with cold TCA. After drying overnight, scintillant was added to the well and plates counted in a Microbeta 1450 Trilux in the Paralux mode. Different reactions included either the target peptide (176 μM), MBP (2 μM), or no substrate.
# target peptide = biological target: T1, target peptide
Molecule,"phosphorylation of substrate, labelled band visualized by autoradiography (his-catActRIIB kinase [1])",signal from labelled substrate by scintillation counting (his-catActRIIB kinase [2]),"phosphorylation of substrate, [32P]ATP autoradiography after gel electrophoresis and blotting (myelin basic protein)","phosphorylation of substrate, [33P]ATP, TCA precipitation on filter plate, scintillation counting (myelin basic protein)","phosphorylation of substrate, [32P]ATP autoradiography after gel electrophoresis and blotting (target peptide)","phosphorylation of substrate, [33P]ATP, TCA precipitation on filter plate, scintillation counting (target peptide)"
"H2N-Val-Tyr-Asp-Leu-Ser-Thr-Ser-Gly-Ser-Gly-Ser-Gly-Leu-Pro-Leu-Phe-Val-Gln-Arg-Thr-Val-Ala-Arg-Thr-Ile-Val-Leu-COOH (H-VYDLSTSGSGSGLPLFVQRTVARTIVL-OH; not fully specified) [target peptide, 27 amino acid substrate peptide for the ActRIIB kinase assay]",labelled target peptide,performed very well,,,,
his-catActRIIB kinase (protein) YGHVDIHEDPGPPPPSPLVGLKPLQLLEIKARGRFGCVWKAQLMNDFVAVKIFPLQDKQSWQSEREIFSTPGMKHENLLQFIAAEKRGSNLEVELWLITAFHDKGSLTDYLKGNIITWNELCHVAETMSRGLSYLHEDVPWCRGEGHKPSIAHRDFKSKNVLLKSDLTAVLADFGLAVRFEPGKPPGDTHGQVGTRRYMAPEVLEGAINFQRDAFLRIDMYAMGLVLWELVSRCKAADGPVDEYMLPFEEEIGQHPSLEELQEVVVHKKMRPTIKDHWLKHPGLAQLCVTIEECWDHDAEARLSAGCVEERVSLIRRSVNGTTSDCLVSLVTSVTNVDLPPKESSI,,,"In the reaction mixture comprising MBP, bands were visualized at 18 Kd and 40 Kd, corresponding to labelled MBP and autophosphorylated his-catActRIIB kinase, respectively",the reaction with MBP unexpectedly yields a negative result,"In the reaction mixture comprising target peptide, bands were visualized at 3 Kd and 40 Kd, corresponding to labelled target peptide and autophosphorylated his-catActRIIB kinase, respectively",the reaction performed very well with the target peptide as a substrate
"MBP: Myelin Basic Protein, a commonly used substrate for kinase assays (protein, UniProt P02687 1-169, looked up) Myelin basic protein: AAQKRPSQRSKYLASASTMDHARHGFLPRHRDTGILDSLGRFFGSDRGAPKRGSGKDGHHAARTTHYGSLPQKAQGHRPQDENPVVHFFKNIVTPRTPPPSQGKGRGLSLSRFSWGAEGQKPGFGYGGRASDYKSAHKGLKGHDAQGTLSKIFKLGGRDSRSGSPMARR",labelled MBP,negative result,,,,
